Among the data in paper PMC12168090 are stoichiometry N values, retold here.

The target in the experiment is NSP5, rotavirus RV Strain A RF, N-terminally Strep-tagged, full length (group A rotavirus, strain RF (RV Strain A RF)). Kind of experiment: native MS; full-length NSP5 in 200 mM ammonium acetate pH 6.9, 20 μM monomer; Q-Exactive UHMR, nESI.

Regarding “NSP5, rotavirus RV Strain A RF, N-terminally Strep-tagged, full length (natural protein)”, the stoichiometry N (in general, the number of molecules, sites or subunits per partner or assembly) was 10.
